From publication PMC4433238
Positions count from the first letter of the chain named.

Columns and labels:
Assay in all cases: EMSA
[1] = molecular target: T1, SmAlkD2 (Streptococcus mutans Clarke (ATCC 25175)) (UniProt A0A0M3KL00); conditions: EMSA: 100 pM 32P-DNA, 0-50 uM protein, 20 mM Tris-HCl pH 7.5, 100 mM NaCl, 5% glycerol, 2 mM DTT, 0.1 mM EDTA, 0.1 mg/mL BSA, 20 C, 30 min, 5% native gel
T1 sequence: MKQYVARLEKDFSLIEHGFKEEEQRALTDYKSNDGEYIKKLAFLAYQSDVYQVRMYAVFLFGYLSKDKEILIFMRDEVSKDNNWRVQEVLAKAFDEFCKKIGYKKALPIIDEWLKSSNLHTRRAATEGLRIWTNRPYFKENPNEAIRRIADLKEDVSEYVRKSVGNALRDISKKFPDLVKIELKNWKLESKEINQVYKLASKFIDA

BcAlkD (Bacillus cereus) = molecular target: T2, BcAlkD (Bacillus cereus) (UniProt Q2PAD8); conditions: EMSA: 100 pM 32P-DNA, 0-50 uM protein, 20 mM Tris-HCl pH 7.5, 100 mM NaCl, 5% glycerol, 2 mM DTT, 0.1 mM EDTA, 0.1 mg/mL BSA, 20 C, 30 min; 5% native gel
T2 sequence: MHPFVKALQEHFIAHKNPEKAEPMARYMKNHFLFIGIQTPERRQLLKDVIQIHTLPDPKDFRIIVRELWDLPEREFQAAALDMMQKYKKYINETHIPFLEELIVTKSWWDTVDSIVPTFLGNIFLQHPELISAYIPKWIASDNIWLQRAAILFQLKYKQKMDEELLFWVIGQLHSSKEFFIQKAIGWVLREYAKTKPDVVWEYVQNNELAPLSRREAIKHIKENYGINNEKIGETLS

[2] = molecular target: T3, BcAlkD-K29A K29A (Bacillus cereus) (UniProt Q2PAD8); conditions: N13 of strand 1 = tetrahydrofuran (THF) abasic site mimetic; EMSA: 100 pM 32P-DNA, 0-50 uM protein, 20 mM Tris-HCl pH 7.5, 100 mM NaCl, 5% glycerol, 2 mM DTT, 0.1 mM EDTA, 0.1 mg/mL BSA, 20 C, 30 min; 5% native gel
T3 sequence: T2 sequence with K29A

Q: For “GACCACTACACCGATTCCTTACAAC (double strand) [G•C-DNA 25-mer]”, which Kd [1] is on record?
A: 67 µM

Q: What about the Kd (BcAlkD (Bacillus cereus)) of the same sequence?
A: 19 µM

Q: With “GACCACTACACCGATTCCTTACAAC / GTTGTAAGGAATTGGTGTAGTGGTC [G•T-DNA 25-mer]” as the sequence, how does the Kd ([1]; G13•T13 mismatch) read?
A: 52 µM

Q: Which Kd ([1]; N13 of strand 1 = tetrahydrofuran (THF) abasic site mimetic) does the source give for “GACCACTACACCNATTCCTTACAAC / GTTGTAAGGAATCGGTGTAGTGGTC [THF•C-DNA 25-mer]” here?
A: 3.4 µM

Q: And the binding signal (fold lower affinity than WT) [2]?
A: > 10000
